Target: ErbB4 (full-length, expressed in mammalian cells) (human) (UniProt Q15303)
Experiment: cell-based or functional assay

Chain of ErbB4 (full-length, expressed in mammalian cells) (human) (Q15303 26-1308 limits assumed): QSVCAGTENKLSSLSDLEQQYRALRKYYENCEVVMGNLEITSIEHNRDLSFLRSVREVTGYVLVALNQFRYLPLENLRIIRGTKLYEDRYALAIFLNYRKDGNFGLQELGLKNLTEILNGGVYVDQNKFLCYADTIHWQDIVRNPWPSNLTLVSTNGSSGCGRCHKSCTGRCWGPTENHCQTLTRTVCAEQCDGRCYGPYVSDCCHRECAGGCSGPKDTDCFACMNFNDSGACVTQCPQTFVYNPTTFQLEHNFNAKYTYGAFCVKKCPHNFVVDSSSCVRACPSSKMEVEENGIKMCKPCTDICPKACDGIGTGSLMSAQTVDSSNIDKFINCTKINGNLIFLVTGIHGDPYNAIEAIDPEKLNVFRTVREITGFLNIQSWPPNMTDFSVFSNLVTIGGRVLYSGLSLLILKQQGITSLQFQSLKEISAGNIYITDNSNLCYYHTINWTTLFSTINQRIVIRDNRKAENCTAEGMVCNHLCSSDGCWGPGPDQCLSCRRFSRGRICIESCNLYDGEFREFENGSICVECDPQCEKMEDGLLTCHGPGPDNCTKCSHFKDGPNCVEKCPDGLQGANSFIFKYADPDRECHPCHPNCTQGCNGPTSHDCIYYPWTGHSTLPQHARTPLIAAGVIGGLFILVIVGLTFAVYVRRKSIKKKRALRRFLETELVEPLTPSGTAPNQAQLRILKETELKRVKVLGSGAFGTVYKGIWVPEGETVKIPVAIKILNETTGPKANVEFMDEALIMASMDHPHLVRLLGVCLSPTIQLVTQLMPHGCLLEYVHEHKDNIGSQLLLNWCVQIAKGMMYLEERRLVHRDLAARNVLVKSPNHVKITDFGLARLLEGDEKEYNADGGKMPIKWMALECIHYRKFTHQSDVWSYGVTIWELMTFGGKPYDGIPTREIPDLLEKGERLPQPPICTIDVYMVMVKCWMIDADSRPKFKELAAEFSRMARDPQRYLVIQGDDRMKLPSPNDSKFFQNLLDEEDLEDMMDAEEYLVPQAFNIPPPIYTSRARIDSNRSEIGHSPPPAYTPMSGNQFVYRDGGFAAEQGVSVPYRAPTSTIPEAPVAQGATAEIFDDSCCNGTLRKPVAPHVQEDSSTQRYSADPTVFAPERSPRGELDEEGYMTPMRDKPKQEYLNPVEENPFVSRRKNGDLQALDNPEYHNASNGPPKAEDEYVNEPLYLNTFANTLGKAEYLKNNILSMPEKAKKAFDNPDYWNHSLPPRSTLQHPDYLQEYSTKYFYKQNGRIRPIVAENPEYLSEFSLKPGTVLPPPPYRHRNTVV

NRG1 EC50, luciferase reporter gene under a promoter containing a serum response element (SRE), CHO-K1 cells expressing ErbB4 with or without Fyn: 1 nM
Substance: NRG1 (recombinant human HRG-αEGF domain; R&D Systems) (from UniProt Q02297 177-241) (ligand)

Reference: US20060029546A1, “Materials and methods for identifying anti-schizophrenic agents” (deCODE Genetics, Inc., priority 2004, published 2006)
